Broadly, the stoichiometry N is the number of molecules, sites or subunits per partner or assembly.

T1: LIS1 (full length human) (human, UniProt P43034 1-410)
T1 construct: LIS1, human, full length, UniProt P43034 (printed for the AlphaFold2 prediction); A version with an additional C-terminal SNAPf tag also exists; also called wild-type LIS1; source: Sf9, purified (IgG Sepharose, TEV, SEC); not shown: ZZ, N-terminal, cleaved
T1 sequence (looked up): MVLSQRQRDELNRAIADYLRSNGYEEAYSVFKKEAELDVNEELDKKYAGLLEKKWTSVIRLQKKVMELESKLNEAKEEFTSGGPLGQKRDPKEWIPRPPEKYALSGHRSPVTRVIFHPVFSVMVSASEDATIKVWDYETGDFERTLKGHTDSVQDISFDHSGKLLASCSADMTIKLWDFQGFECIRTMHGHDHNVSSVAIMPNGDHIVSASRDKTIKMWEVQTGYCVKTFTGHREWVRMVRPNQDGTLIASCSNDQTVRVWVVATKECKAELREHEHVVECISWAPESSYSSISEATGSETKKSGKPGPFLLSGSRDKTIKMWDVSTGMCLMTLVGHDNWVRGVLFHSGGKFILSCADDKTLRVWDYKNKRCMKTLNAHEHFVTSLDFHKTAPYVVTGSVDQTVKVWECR

T2: mouse JIP3 186-505_L383A/E386A (mouse, UniProt Q9ESN9-5 186-505, L383A | E386A)
T2 construct: JIP3, mouse cDNA, isoform 3a, UniProt Q9ESN9-5, residues 186-505 with L383A and E386A; also called Spindly motif mutant (L383A/E386A); source: SoluBL21 E. coli, purified (Ni-NTA, TEV, Strep-Tactin, SEC); not shown: His6, N-terminal, cleaved; MBP, N-terminal, cleaved
T2 sequence (looked up): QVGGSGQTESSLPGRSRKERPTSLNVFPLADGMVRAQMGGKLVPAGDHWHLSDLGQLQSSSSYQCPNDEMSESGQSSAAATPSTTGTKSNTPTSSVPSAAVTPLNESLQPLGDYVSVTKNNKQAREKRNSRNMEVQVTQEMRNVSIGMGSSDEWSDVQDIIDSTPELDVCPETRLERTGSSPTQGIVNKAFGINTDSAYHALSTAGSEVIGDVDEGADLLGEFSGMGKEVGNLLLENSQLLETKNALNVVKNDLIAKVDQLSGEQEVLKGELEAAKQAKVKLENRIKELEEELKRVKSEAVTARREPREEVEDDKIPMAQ

T3: mouse JIP3^185-505 (JIP3 residues 186-505) (mouse, UniProt Q9ESN9-5 186-505)
T3 construct: 2CT vector; also called JIP3 fragment containing the Spindly motif and LZII; JIP3 186-505; source: SoluBL21 E. coli, purified (Ni-NTA, TEV, Strep-Tactin, SEC); not shown: His6, N-terminal, cleaved; MBP, N-terminal, cleaved
T3 sequence (looked up): T2 sequence (looked up) with A198L, A201E

B1: LIS1^mut (natural protein, human, UniProt P43034 1-410, looked up)
chain: MVASQEARDELNRAIADYLRSNGYEEAYSVFKKEAELDVNEELDKEYAGLLEEEWAAVAELAEEVMELRSKLNEAKEEFTSGGPLGQKRDPKEWIPRPPEKYALSGHRSPVTRVIFHPVFSVMVSASEDATIKVWDYETGDFERTLKGHTDSVQDISFDHSGKLLASCSADMTIKLWDFQGFECIRTMHGHDHNVSSVAIMPNGDHIVSASRDKTIKMWEVQTGYCVKTFTGHREWVRMVRPNQDGTLIASCSNDQTVRVWVVATKECKAELREHEHVVECISWAPESSYSSISEATGSETKKSGKPGPFLLSGSRDKTIKMWDVSTGMCLMTLVGHDNWVRGVLFHSGGKFILSCADDKTLRVWDYKNKRCMKTLNAHEHFVTSLDFHKTAPYVVTGSVDQTVKVWECR
notes: The last substitution is printed as E6 9R and read as E69R; source: Sf9, purified (IgG Sepharose, TEV, SEC); not shown: ZZ, N-terminal, cleaved
B2: JIP3^1-560 (domain or fragment, human, UniProt Q9UPT6-1 1-560, looked up)
chain: MMEIQMDEGGGVVVYQDDYCSGSVMSERVSGLAGSIYREFERLIHCYDEEVVKELMPLVVNVLENLDSVLSENQEHEVELELLREDNEQLLTQYEREKALRRQAEEKFIEFEDALEQEKKELQIQVEHYEFQTRQLELKAKNYADQISRLEERESEMKKEYNALHQRHTEMIQTYVEHIERSKMQQVGGNSQTESSLPGRRKERPTSLNVFPLADGTVRAQIGGKLVPAGDHWHLSDLGQLQSSSSYQCPQDEMSESGQSSAAATPSTTGTKSNTPTSSVPSAAVTPLNESLQPLGDYGVGSKNSKRAREKRDSRNMEVQVTQEMRNVSIGMGSSDEWSDVQDIIDSTPELDMCPETRLDRTGSSPTQGIVNKAFGINTDSLYHELSTAGSEVIGDVDEGADLLGEFSVRDDFFGMGKEVGNLLLENSQLLETKNALNVVKNDLIAKVDQLSGEQEVLRGELEAAKQAKVKLENRIKELEEELKRVKSEAIIARREPKEEAEDVSSYLCTESDKIPMAQRRRFTRVEMARVLMERNQYKERLMELQEAVRWTEMIRASRE
notes: JIP3, human, UniProt Q9UPT6-1, residues 1-560, codon optimised for Sf9; The bacterial 2CT version would carry a C-terminal Strep-tag II; source: Sf9, purified (IgG Sepharose, TEV, SEC); not shown: His6, N-terminal, cleaved; ZZ, N-terminal, cleaved
B3: GST-Psc-DCTN1(residues 350-547)-GFP-6xHis (domain or fragment, human (from the printed UniProt entry), UniProt Q14203-1 350-547, looked up)
chain: GSDGAASSYQLKQLEEQNARLKDALVRMRDLSSSEKQEHVKLQKLMEKKNQELEVVRQQRERLQEELSQAESTIDELKEQVDAALGAEEMVEMLTDRNLNLEEKVRELRETVGDLEAMNEMNDELQENARETELELREQLDMAGARVREAQKRVEAAQETVADYQQTIKKYRQLTAHLQDVNRELTNQQEASVERQQQ
notes: DCTN1/p150glued, UniProt Q14203-1, residues 350-547 (CC1B fragment); also called CC1B; p150-CC1B; source: SoluBL21 E. coli, purified (Ni-NTA, glutathione resin, SEC)
B4: GCN4-WD40-SNAP (other, human)
chain: GSGSVKQLEDKVEELLSKNAHLENEVARLKKLVSGGPLGQKRDPKEWIPRPPEKYALSGHRSPVTRVIFHPVFSVMVSASEDATIKVWDYETGDFERTLKGHTDSVQDISFDHSGKLLASCSADMTIKLWDFQGFECIRTMHGHDHNVSSVAIMPNGDHIVSASRDKTIKMWEVQTGYCVKTFTGHREWVRMVRPNQDGTLIASCSNDQTVRVWVVATKECKAELREHEHVVECISWAPESSYSSISEATGSETKKSGKPGPFLLSGSRDKTIKMWDVSTGMCLMTLVGHDNWVRGVLFHSGGKFILSCADDKTLRVWDYKNKRCMKTLNAHEHFVTSLDFHKTAPYVVTGSVDQTVKVWECR
notes: LIS1, human, residues 81-410; source: Sf9, purified (IgG Sepharose, TEV, SEC); not shown: ZZ, N-terminal, cleaved; SNAPf, C-terminal, kept
B5: LIS1-N (residues 1-90) (domain or fragment, human, UniProt P43034 1-90, looked up)
chain: MVLSQRQRDELNRAIADYLRSNGYEEAYSVFKKEAELDVNEELDKKYAGLLEKKWTSVIRLQKKVMELESKLNEAKEEFTSGGPLGQKRD
notes: LIS1, human, residues 1-90 (LisH domain and coiled coil); source: Sf9, purified (IgG Sepharose, TEV, SEC); not shown: ZZ, N-terminal, cleaved
B6: human Arf6 (12-175_Q67L) (domain or fragment, UniProt P62330 12-175, looked up)
chain: KEMRILMLGLDAAGKTTILYKLKLGQSVTTIPTVGFNVETVTYKNVKFNVWDVGGLDKIRPLWRHYYTGTQGLIFVVDCADRDRIDEARQELHRIINDREMRDAIILIFANKQDLPDAMKPHEIQEKLGLTRIRDRNWYVQPSCATSGDGLYEGLTWLTSNYKS
notes: Arf6, human, residues 12-175 with Q67L; pGEX-6P-1 vector: N-terminal GST, Prescission site, C-terminal 6xHis; source: SoluBL21 E. coli, purified (Ni-NTA, glutathione resin, SEC)
B7: MBP-DIC-N (dynein intermediate chain 1-76) (domain or fragment, human, UniProt Q13409 1-76, looked up)
chain: MSDKSELKAELERKKQRLAQIREEKKRKEEERKKKETDQKKEAVAPVQEESDLEKKRREAEALLQSMGLTPESPIV
notes: dynein intermediate chain, residues 1-76; UniProt Q13409 is printed for DIC in the AlphaFold2 predictions; 2CT vector; the general protocol includes a TEV step, but this construct is named and used as MBP-DIC-N on amylose resin; also called DIC-N construct; source: SoluBL21 E. coli, purified; not shown: MBP, N-terminal, kept

Data set [1] concerns the molecule itself. The experiment in a line: SEC-MALS; 70 μL at 1 mg/mL, GF150 buffer, Superdex 200 5/150. (SEC sorts molecules by how far they enter the pores of the column.)
Data set [2] addresses T4, dynactin pointed end complex (ZZ-TEV-Arp11, p62, p25, p27) (human, UniProt Q9NZ32 1-417; Q9UJW0-1 1-460; Q9BTE1 1-182; O00399 1-190).
T4 construct: Arp11, human, subunit of the dynactin pointed end complex; p62, human, isoform A, UniProt Q9UJW0-1; p25, human, subunit of the dynactin pointed end complex; p27, human, subunit of the dynactin pointed end complex; source: pAceBac1 vector; copies: + + +
Description: SEC; pointed end complex and JIP3^1-560 (or its Spindly mutant) mixed 1:1 at 10 μM final in GF150 buffer, 30 min at 4°C, Superose 6 Increase 3.2/300. The conditions noted are these: both partners purified.

The target in data set [3] is T1, LIS1 (full length human). The experiment in a line: pull-down; GST pull-down on glutathione resin with GST-CC1A/B or CC1B as bait; LIS1, LIS1-N or MBP-DIC-N as prey; GST-PD buffer (50 mM HEPES pH 7.5, 100 mM KCl, 1 mM MgCl2, 1 mM DTT), room temperature; Coomassie-stained SDS-PAGE. As to conditions: both partners purified.
For data set [4], the target named is B3. Described as above. As to conditions: both partners purified.
Data set [5] addresses T2, mouse JIP3 186-505_L383A/E386A. The experiment in a line: pull-down; pull-downs with mouse JIP3 186-505 constructs, Arf6 and the recombinant pointed end complex (Fig. S3E); purified recombinant proteins; which protein was held on the resin is not told in the text shown. The conditions noted are these: both partners purified.
Data set [6] has as its target T3, mouse JIP3^185-505 (JIP3 residues …). The description is as above. As to conditions: both partners purified.
Data set [7] concerns the target T5, GST-Psc-DCTN1(residues 214-547)-GFP-6xHis (human (from the printed UniProt entry), UniProt Q14203-1 214-547).
T5 construct: DCTN1/p150glued, UniProt Q14203-1, residues 214-547 (CC1 fragment: CC1A and CC1B); also called GST-CC1A/B; CC1A/B; source: SoluBL21 E. coli, purified (Ni-NTA, glutathione resin, SEC); not shown: GST, N-terminal, kept
Description: pull-down; GST pull-down on glutathione resin with GST-CC1A/B or CC1B as bait; LIS1, LIS1-N or MBP-DIC-N as prey; GST-PD buffer (50 mM HEPES pH 7.5, 100 mM KCl, 1 mM MgCl2, 1 mM DTT), room temperature; Coomassie-stained SDS-PAGE. As to conditions: both partners purified.

Residue numbers refer to the chain shown, from its start. Names may count otherwise.

T4 sequence (Q9NZ32 whole entry, chain 1 of 4, canonical isoform): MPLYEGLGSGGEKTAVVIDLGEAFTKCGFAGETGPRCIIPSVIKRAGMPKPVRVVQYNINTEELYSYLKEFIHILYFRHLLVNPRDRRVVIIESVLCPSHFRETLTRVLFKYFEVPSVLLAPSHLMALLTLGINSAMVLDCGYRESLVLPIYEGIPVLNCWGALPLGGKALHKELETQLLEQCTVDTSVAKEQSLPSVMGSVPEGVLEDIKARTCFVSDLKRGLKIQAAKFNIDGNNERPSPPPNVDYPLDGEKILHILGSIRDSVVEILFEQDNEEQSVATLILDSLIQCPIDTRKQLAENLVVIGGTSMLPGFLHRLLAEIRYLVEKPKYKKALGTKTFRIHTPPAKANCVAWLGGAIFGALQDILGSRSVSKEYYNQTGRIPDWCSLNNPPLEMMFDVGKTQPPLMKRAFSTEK
T4 sequence (Q9UJW0 whole entry, chain 2 of 4, canonical isoform): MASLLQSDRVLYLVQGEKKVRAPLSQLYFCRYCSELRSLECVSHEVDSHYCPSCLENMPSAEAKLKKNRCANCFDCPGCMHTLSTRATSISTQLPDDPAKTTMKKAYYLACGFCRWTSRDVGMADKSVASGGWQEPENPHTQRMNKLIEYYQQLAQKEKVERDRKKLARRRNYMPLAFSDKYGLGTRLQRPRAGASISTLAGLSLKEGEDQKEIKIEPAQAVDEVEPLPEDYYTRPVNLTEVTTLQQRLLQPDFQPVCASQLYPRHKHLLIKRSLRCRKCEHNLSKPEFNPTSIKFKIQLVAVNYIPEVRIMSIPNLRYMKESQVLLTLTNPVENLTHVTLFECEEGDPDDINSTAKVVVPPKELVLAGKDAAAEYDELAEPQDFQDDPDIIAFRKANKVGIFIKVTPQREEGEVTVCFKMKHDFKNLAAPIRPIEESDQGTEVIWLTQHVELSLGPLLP
T4 sequence (Q9BTE1 whole entry, chain 3 of 4, canonical isoform): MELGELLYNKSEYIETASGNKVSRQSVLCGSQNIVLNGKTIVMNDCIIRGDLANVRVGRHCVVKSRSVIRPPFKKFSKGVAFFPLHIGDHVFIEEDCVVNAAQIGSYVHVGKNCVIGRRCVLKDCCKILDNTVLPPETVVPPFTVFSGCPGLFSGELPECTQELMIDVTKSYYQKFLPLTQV
T4 sequence (O00399 whole entry, chain 4 of 4, canonical isoform): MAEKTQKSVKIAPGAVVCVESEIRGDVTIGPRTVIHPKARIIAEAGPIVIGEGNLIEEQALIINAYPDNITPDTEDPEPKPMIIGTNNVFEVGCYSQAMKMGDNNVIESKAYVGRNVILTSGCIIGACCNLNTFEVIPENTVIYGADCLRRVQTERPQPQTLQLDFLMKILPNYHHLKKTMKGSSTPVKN

As to B1, the “stoichiometry N” value in data set [1] is 2. As to B2, the binding result in data set [2] is reported as “binds”. For the molecule B3, the binding result in data set [3] is “binds”. Take B4: in data set [1], the “stoichiometry N” value came out at 2. In the case of B5, in data set [4], the binding result is reported as “binds”.

Consider B6, for which the binding result in data set [5] and in data set [6] was “binds” each time. For the molecule B7, the binding result in data set [7] is on record as “binds”.

Source of the values: PMC7615804, “Molecular mechanism of dynein-dynactin complex assembly by LIS1” (Science (New York, N.Y.), 2024).
